Results taken from the supplement of paper PMC11246515.
± gives the standard deviation of the averaged measurements.

Experiment: total protein half-life in vivo (active degradation + dilution); higher = more stable protein
[1] = E. coli NCM3722 delta-clpP delta-lon delta-hslV, growth: N-lim chemostat, doubling time 6 h
[2] = E. coli NCM3722 delta-clpP, growth: N-lim chemostat, doubling time 6 h
[3] = E. coli NCM3722 delta-hslV, growth: N-lim chemostat, doubling time 6 h
[4] = E. coli NCM3722 delta-lon, growth: N-lim chemostat, doubling time 6 h
[5] = E. coli NCM3722 delta-smpB, growth: N-lim chemostat, doubling time 6 h
[6] = wild type E. coli NCM3722, growth: C-lim chemostat, doubling time 3 h
[7] = wild type E. coli NCM3722, growth: C-lim chemostat, doubling time 6 h
[8] = wild type E. coli NCM3722, growth: C-lim chemostat, doubling time 12 h
[9] = wild type E. coli NCM3722, growth: N-lim chemostat, doubling time 6 h
[10] = wild type E. coli NCM3722, growth: N-lim chemostat, doubling time 12 h
[11] = wild type E. coli NCM3722, growth: P-lim chemostat, doubling time 6 h
[12] = wild type E. coli NCM3722, growth: P-lim chemostat, doubling time 12 h

Sequence | total protein half-life in vivo [1] [h] | total protein half-life in vivo [2] [h] | total protein half-life in vivo [3] [h] | total protein half-life in vivo [4] [h] | total protein half-life in vivo [5] [h] | total protein half-life in vivo [6] [h] | total protein half-life in vivo [7] [h] | total protein half-life in vivo [8] [h] | total protein half-life in vivo [9] [h] | total protein half-life in vivo [10] [h] | total protein half-life in vivo [11] [h] | total protein half-life in vivo [12] [h]
MRSKYIVIEGLEGAGKTTARNVVVETLEQLGIRDMVFTREPGGTQLAEKLRSLVLDIKSVGDEVITDKAEVLMFYAARVQLVETVIKPALANGTWVIGDRHDLSTQAYQGGGRGIDQHMLATLRDAVLGDFRPDLTLYLDVTPEVGLKRARARGELDRIEQESFDFFNRTRARYLELAAQDKSIHTIDATQPLEAVMDAIRTTVTHWVKELDA [P0A720] | 4.32 ± 0.51 | 4 ± 0.41 | 4.4 ± 0.41 | 4.52 ± 0.32 | 4.25 ± 0.13 | 3.059 ± 0.011 | 5.11 ± 0.073 | 9.9341 ± 0.0012 | 3.93 ± 0.26 | 6.63 ± 0.1 | 5.59 ± 0.5 | 11.3 ± 0.12
MPKLILASTSPWRRALLEKLQISFECAAPEVDETPRSDESPRQLVLRLAQEKAQSLASRYPDHLIIGSDQVCVLDGEITGKPLTEENARLQLRKASGNIVTFYTGLALFNSANGHLQTEVEPFDVHFRHLSEAEIDNYVRKEHPLHCAGSFKSEGFGITLFERLEGRDPNTLVGLPLIALCQMLRREGKNPLMG [P0A729] | 4.57 ± 0.6 | – | 4.118 ± 0.0072 | – | 3.68 ± 0.16 | 3.14 ± 0.5 | 5.174 ± 0.02 | 8.34 ± 0.7 | 3.77 ± 0.35 | 6.24 ± 0.41 | 5.45 ± 0.28 | 12.1 ± 0.56
MSNVIASLEKVLLPFAVKIGKQPHVNAIKNGFIRLMPLTLAGAMFVLINNVFLSFGEGSFFYSLGIRLDASTIETLNGLKGIGGNVYNGTLGIMSLMAPFFIGMALAEERKVDALAAGLLSVAAFMTVTPYSVGEAYAVGANWLGGANIISGIIIGLVVAEMFTFIVRRNWVIKLPDSVPASVSRSFSALIPGFIILSVMGIIAWALNTWGTNFHQIIMDTISTPLASLGSVVGWAYVIFVPLLWFFGIHGALALTALDNGIMTPWALENIATYQQYGSVEAALAAGKTFHIWAKPMLDSFIFLGGSGATLGLILAIFIASRRADYRQVAKLALPSGIFQINEPILFGLPIIMNPVMFIPFVLVQPILAAITLAAYYMGIIPPVTNIAPWTMPTGLGAFFNTNGSVAALLVALFNLGIATLIYLPFVVVANKAQNAIDKEESEEDIANALKF | – | – | 7.11 | – | 6.04 ± 0.73 | – | 6.68 ± 0.31 | 9.58 ± 2.1 | 6.51 | – | – | 13.3
MKPTTISLLQKYKQEKKRFATITAYDYSFAKLFADEGLNVMLVGDSLGMTVQGHDSTLPVTVADIAYHTAAVRRGAPNCLLLADLPFMAYATPEQAFENAATVMRAGANMVKIEGGEWLVETVQMLTERAVPVCGHLGLTPQSVNIFGGYKVQGRGDEAGDQLLSDALALEAAGAQLLVLECVPVELAKRITEALAIPVIGIGAGNVTDGQILVMHDAFGITGGHIPKFAKNFLAETGDIRAAVRQYMAEVESGVYPGEEHSFH | 6.05 ± 0.05 | 5.86 ± 0.2 | 6.34 ± 0.95 | 6.74 ± 0.46 | 6.04 ± 0.64 | 2.96 ± 0.031 | 6.93 ± 0.31 | 12.5 ± 2.7 | 5.51 ± 0.51 | 12.3 ± 2.8 | 6.42 ± 1.1 | –
MSQTIDLTLDGLSCGHCVKRVKESLEQRPDVEQADVSITEAHVTGTASAEQLIETIKQAGYDASVSHPKAKPLAESSIPSEALTAVSEALPAATADDDDSQQLLLSGMSCASCVTRVQNALQSVPGVTQARVNLAERTALVMGSASPQDLVQAVEKAGYGAEAIEDDAKRRERQQETAVATMKRFRWQAIVALAVGIPVMVWGMIGDNMMVTADNRSLWLVIGLITLAVMVFAGGHFYRSAWKSLLNGAATMDTLVALGTGVAWLYSMSVNLWPQWFPMEARHLYYEASAMIIGLINLGHMLEARARQRSSKALEKLLDLTPPTARLVTDEGEKSVPLAEVQPGMLLRLTTGDRVPVDGEITQGEAWLDEAMLTGEPIPQQKGEGDSVHAGTVVQDGSVLFRASAVGSHTTLSRIIRMVRQAQSSKPEIGQLADKISAVFVPVVVVIALVSAAIWYFFGPAPQIVYTLVIATTVLIIACPCALGLATPMSIISGVGRAAEFGVLVRDADALQRASTLDTVVFDKTGTLTEGKPQVVAVKTFADVDEAQALRLAAALEQGSSHPLARAILDKAGDMQLPQVNGFRTLRGLGVSGEAEGHALLLGNQALLNEQQVGTKAIEAEITAQASQGATPVLLAVDGKAVALLAVRDPLRSDSVAALQRLHKAGYRLVMLTGDNPTTANAIAKEAGIDEVIAGVLPDGKAEAIKHLQSEGRQVAMVGDGINDAPALAQADVGIAMGGGSDVAIETAAITLMRHSLMGVADALAISRATLHNMKQNLLGAFIYNSIGIPVAAGILWPFTGTLLNPVVAGAAMALSSITVVSNANRLLRFKPKE | 5.76 ± 0.52 | 5.33 ± 0.2 | 5.194 ± 0.042 | 5.433 ± 0.023 | 5.23 ± 0.55 | 2.89 ± 0.21 | 5.07 ± 0.085 | 9.5 ± 0.77 | 5.26 ± 0.34 | 9.52 ± 0.35 | 5.33 ± 0.32 | 9.65 ± 0.45
